These results are taken from patent US20060150259A1, “Model of bone disease amenable to high-throughput screening” (priority 2003, published 2006).

Entries after “also recorded” stand apart in the source; their conditions may differ.

For data set [1], the system named is zebrafish larvae (bone formation). Put plainly: Anabolic bone screen in zebrafish larvae. The class given is in vivo. The note with it: for anabolic effects (promoting bone), dose/response: 3 d.p.f. to 8 d.p.f., range of concentrations. The method, then: A 1 mg/ml stock of parathyroid hormone (PTH) (Sigma) was made in 20 mM NaH2PO4 and 2.13g/L mannitol. A […] stock of cholecalciferol (Vitamin D)(Sigma) was made in dH2O. […]
(§1) Embryos and larvae were fixed in 4% paraformaldehyde (PFA), then labelled with alizarin red as described herein. In vivo labelling was achieved by rearing fish in 0.05% alizarin red in embryo medium.
(§2) Stained larvae were mounted on depression slides and visualised by fluorescence microscopy on a BX51 microscope (Olympus) and images were captured using a ColorView camera and AnalySis software (Olympus). The intensity of and area of alizarin red fluorescence was quantified for each treatment group, with a minimum of 5 samples per group, using colour threshold and area measurements in AnalySis (Olympus). Mean values and standard deviations were calculated using Excel software (Microsoft Office).
In addition to screening for the rescue of osteoporosis, we observed that anabolic bone effects could also be detected.

The test system of another data set is zebrafish. Put plainly: DMSO tolerance of zebrafish. The note with it: added to the fish water. The class given is in vivo. The text has this:
Moreover, the inventors have discovered that zebrafish are also DMSO (dimethyl sulphoxide) tolerant. This is important as DMSO is used as a solvent to dissolve many drugs. The inventors have established that zebrafish can tolerate 1% DMSO. Thus, a candidate drug or other test substance may be dissolved in DMSO and administered to zebrafish by adding to the fish water to give a final concentration of DMSO of at least up to 1%. This is employed in various preferred aspects and embodiments of the present invention.

For data set [2], the system named is zebrafish larvae with prednisolone-induced osteoporosis. Put plainly: Rescue of prednisolone-induced osteoporosis with etidronate in zebrafish larvae. The format is in vivo. The method, then:
1) Osteoporosis was induced with prednisolone as described above.
2) Etidronic acid (Sigma H6773) was made up as […] stock in embryo medium.
3) Osteoporosis was rescued by co-administration of etidronic acid and prednisolone from 3 d.p.f. to 10 d.p.f.
A 10 mg/ml stock solution of etidronate (Sigma) in embryo medium was used in all prednisolone rescue experiments. The pH of the solution was adjusted to pH 7.5 using NaOH. The stock was stored at 4° C. for a maximum of 2 months. […]. OP was induced by exposure of larvae to 10 ug/ml prednisolone from 3 d.p.f. to 6 d.p.f. At 6 d.p.f., medium containing 10 ug/ml prednisolone was removed and replaced with 10 ug/ml prednisolone in combination with etidronate.
as §1, §2
A dose/response study was performed using larvae exposed to varying doses of etidronate in the presence of prednisolone (at 10 ug/ml) from 3 d.p.f. to 9 d.p.f. Samples were stained with alizarin red and the area of stained tissue was quantified using AnalySis software. The average stained area was calculated from five samples at each concentration and plotted as a mineralization index.

Another data set concerns zebrafish larvae. Put plainly: Toxicity / viability of zebrafish larvae in embryo medium containing compound.

As to `C=C1CC[C@H](O)C/C1=C/C=C1\CCC[C@]2(C)[C@@H]([C@H](C)CCCC(C)C)CC[C@@H]12` [Cholecalciferol, cholecalciferol, reference compound], in data set [1], the “anabolic effects (promoting bone), dose/response” value was “clear dose/response in relation to promoting bone”.

As for `C[S+](C)[O-]` [DMSO, dimethyl sulphoxide], the “DMSO concentration tolerated by zebrafish” value in the data set with zebrafish amounted to 1%.

Turning to `CC(O)(P(=O)(O)O)P(=O)(O)O` [etidronate, Etidronic acid], in data set [2] (etidronate 10 ug/ml with prednisolone 10 ug/ml), the “rescue of OP phenotype in wholemount skeletal preparations (amount of staining)” value was “rescue is readily observed; also recorded: clear increase in the amount of staining”. Besides, in data set [2] (increasing doses of etidronate in the presence of prednisolone), the “dose/response, fluorescence intensity in stained bones in vivo” value was “correlated with recovery from OP”. In addition, the “dose/response, area of stained tissue (mineralization index)” value in data set [2] (varying doses of etidronate with prednisolone 10 ug/ml, 3 d.p.f. to 9 d.p.f.) is “clear correlation between increasing doses of etidronate and rescue of the OP phenotype”. The viability of larvae result in the data set with zebrafish larvae (5 ug/mi etidronic acid co-administered with 10 ug/ml prednisolone) and in the data set on zebrafish larvae (10 ug/ml etidronate co-administered with 10 ug/ml prednisolone) was “viable beyond 10 d.p.f” in each case.

B1: parathyroid hormone (peptide, UniProt P01270 32-115, looked up)
Parathyroid hormone: SVSEIQLMHNLGKHLNSMERVEWLRKKLQDVHNFVALGAPLAPRDAGSQRPRKKEDNVLVESHEKSLGEADKADVNVLTKAKSQ
modifications: Parathyroid hormone
notes: parathyroid hormone (PTH) (Sigma)
On to B1, for which the Summary of effects entry in data set [1] (40 ng/ml, Continuous, 3 d.p.f. to 8 d.p.f) was “Anabolic effect”; in data set [1] (100 ng/ml, Continuous, 3 d.p.f. to 8 d.p.f), “Mild catabolic”; in data set [1] (200 ng/ml, Brief, 6 hours on 5 d.p.f, effects noted on 8 d.p.f.) it was “Strong anabolic”; in data set [1] (200 ng/ml, Continuous, 3 d.p.f. to 8 d.p.f), “Strong catabolic”. In addition, the effect on bone result was “anabolic effect” in data set [1] (200 ng/ml, administered for 6-8 hours and then removed from the medium); “catabolic effect” in data set [1] (206 ng/ml, administered continuously from 3 d.p.f to 9 d.p.f.); “anabolic effect” in data set [1] (doses up to 100 ng/ml, administered continuously from 3 d.p.f to 9 d.p.f.). For the same molecule, the “anabolic effects (promoting bone), dose/response” value in data set [1] is given as “clear dose/response in relation to promoting bone”.
